# Data: patent US20190248900A1 (Y BIOLOGICS, published 2019)
# Tests used:
# [1] = target: T1, PD1-hFc (human, UniProt Q15116 25-170); experiment: competition ELISA: PD1-Fc coated, PDL1-His as binder, antibody as competitor
# T1 construct: extracellular domain; also called PD1-hFc protein; Human PD-1-Fc (S1420, Y-Biologics)
# Experimental: Human PD-1-Fc (S1420, Y-Biologics) or PD-L2-Fc (#10292-H02H, Sino) was added to wells of a 96-well immuno microplate (#439454, Thermo) and then washed three times with PBS containing 0.05% tween-20 (#P9416, Sigma-Aldrich), followed by allowing to stand in a cleaning solution containing 4% skim milk (#232120, Becton, Dickinson and Company) at room temperature for 1 hour to block non-specific binding. […] After the resulting product was subjected to the same washing method as above, the anti-Biotin-His antibody (#MA1-21315-BTIN, Thermo) diluted to 1:2000 was added to the well of the microplate, allowed to react at room temperature for 1 hour, streptavidin poly-HRP antibody (#21140, Pierce) diluted to 1:5000 was added to the well of microplate, reacted at room temperature for 1 hour and then washed in the same manner. 100 ul of a TMB substrate solution (#T0440, Sigma-Aldrich) was added to the reaction product, light was shielded, and the reaction product was allowed to stand at room temperature for 3 minutes, 50 μL of 2.5 M sulfuric acid (#S1478, Samchun) was added to stop the reaction, and absorbance was measured at 450 nm using a spectrophotometer (*GM3000, Glomax® Discover System Promega).
# [2] = target: T1, PD1-hFc; experiment: ProteOn XPR36; legend names PD1-hFc, the sheet names the immobilised protein PD-1 C-his
# [3] = target: T2, human PD-1 (NM_005018.2) over-expressed on cells (human, UniProt Q15116 25-288); experiment: cell-based or functional assay
# [4] = target: T3, rat PD1 protein (rat, UniProt D3ZIN8 25-169); experiment: SPR ProteOn XPR36; format for rat PD1 not described
# T3 construct: also called rat PD-1 proteins
# T3 sequence: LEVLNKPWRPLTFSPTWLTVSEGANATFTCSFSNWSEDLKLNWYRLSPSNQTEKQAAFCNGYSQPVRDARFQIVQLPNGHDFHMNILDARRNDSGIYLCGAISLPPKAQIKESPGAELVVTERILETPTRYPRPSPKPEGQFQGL
# [5] = target: T1, PD1-hFc; experiment: SPR ProteOn XPR36, PD1-hFc immobilised, antibody as analyte
# Experimental: (§1) A ProteOn XPR36 (BioRad) instrument was used. The GLC sensor chip (BioRad) was mounted on the instrument and washed with PBST buffer, and the carboxymethyldextran surface was activated with an EDC/sulfo-NHS mixed solution. PD1-hFc dissolved at a concentration of 5 ug/ml in a 10 mM sodium acetate buffer solution (pH 5.0) was injected and immobilized on the GLC sensor chip.
# (§2) In order to deactivate the activated carboxyl groups that remain unreacted with the PD1 protein, 1 M ethanolamine was flowed and 10 mM glycine (pH 2.0) was injected in order to wash proteins that remain unbound to the sensor chip.
# (§3) The equilibrium dissociation constant (KD) was calculated by plotting and fitting the sensogram data in the equilibrium state depending on concentration.
# [6] = target: T2, human PD-1 (NM_005018.2) over-expressed …; experiment: flow cytometry, 18 nM, over IgG
# [7] = target: T1, PD1-hFc; experiment: SPR ProteOn XPR36, PD1-hFc immobilised, antibody as analyte; parent antibody, Example 4 text (FIG. 9), not the Table 12 run
# Experimental: as §1, §2, §3
Binder,IC50 [1] [nM],Kd [2] [nM],koff [2] [s⁻¹],EC50 [3] [nM],Kd [4] [nM],koff [4] [s⁻¹],kon [4] [M⁻¹ s⁻¹],kon [5] [M⁻¹ s⁻¹],Fold [6],Kd [7] [nM],Kd [5] [nM],koff [5] [s⁻¹]
"PD1-45D6 (antibody, V domains shown, scFv-phage in the screening ELISA; whole IgG in the other assays) VH: QVQLVESGGGVVQPGRSLRLSCAASGFTFSSYAMHWVRQVPGKGLEWVAVISYDGNDKYYADSVKGRFTISRDNSKNTLYLQMNSLRAEDTAVYYCVPTTFEYWGQGSQVTVSS VL: DIVMTQTPLSLPVTPGEAASISCRSSQSLLDSDDGKTYLDWYLQKPGQSPQLLIYTLSYRASGVPDRFSGSGSGTEFNLRISRVEAEDVGIYYCMQRVEFPFTFGQGTKLDIK",3.72,< 0.001,< 1.07e-07,1.88,2.39,0.000133,55400,270000,286,–,–,–
"PD1-49A2 (antibody, V domains shown, scFv-phage in the screening ELISA; whole IgG in the other assays; also called Parent 49A2) VH: QVQLVESGGGVVQPGRSLRLSCAASGFTFSSYAMHWVRQAPGKGLEWVAVISYDGSNKYYADSVKGRFTISRDNPKNTLYLQMNSLRAEDTAVYYCTTTTFDSWGRGTLVTVSS VL: DIVMTQSPLSLPVTPGEPASISCRSSQSLFDSDDGNTYLDWYLQKPGQSPQLLIYTLSHRASGVPDRFSGSGSGTDFTLKISRVEAEDVGIYYCLQRMGFPYTFGQGTKVEIK",3.92,–,–,–,–,–,–,395000,222,0.019,0.237,9.37e-05
